Source: the nanobody polyreactivity screen of Harvey et al. (2022)

Assay: yeast display, Sf9 membrane polyspecificity reagent, FACS + sequencing; frameworks hold sequencing errors
In short: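 Genes from sorted yeast were amplified by colony PCR, read by MiSeq 2 × 250 sequencing and filtered on CDR length. These cells carried a synthetic nanobody library in Saccharomyces cerevisiae BJ5465 and were sorted by FACS into low and high (top ~1%) gates on anti-HA and streptavidin fluorescence. Polyreactivity is labelled according to the gate of origin.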

Row | Sequence | polyreactivity (PSR sort gate)
1 | QVQLVESGGGLVQAGGRLRLSCAASGTTIVYYAMGWSRQAPGKEREMVAAISWSGTRTYYADSVKGRFTISRDTGKNSVYLQMNSLIPEDTAVYYCAAKGGYSTGRPTFTIFNYWGQGTQVTVSS | high polyreactivity
2 | QVQLVESGGGLVQAGGSLRLSCAASGYTFRYNTMGWYRQAPGKERELVADISSGVGNTYYADSVKGRFTISRDNAKNTVYLQMNSLKPEDTAVYYCNADYKSSYYWYLWYNYWGHGTQVTVSS | low polyreactivity
3 | QVQLVESGGGLVQAGGSLRLSCAASVSIYPDYAMGWYRQAPGKERELVAAISRSGGSTYYADSVKGRFTISRDNAKNTVYLQMNSLKREDTAVYDCNARPGSRYYGYRLYYYWGQGTQVTVSS | high polyreactivity
4 | QVQLVESGGGLVQAGGSLRLSCAASGNTFPFNAMGWYRQAPGKERELVAAISRGGSTYYADSVKGRFTISRDNAKNTVYLQMISLKPEDTAVYYCAVSAGKRRLDYWGQGTQVTVSS | high polyreactivity
5 | QVQLVESGGGLVQAGGSLRLSCAASGSTFGSYAMGWYRQAPGKERELVAAITQIGGSTYYADSVKGRFTISRDNAKNTVYLQMNSLKPEDTEVYYCAVTAGRGGYPQGGVTRGYWGQGTQVTVSS | high polyreactivity
6 | QVQLVESGGGLVQAGGSIRLSCAASGSIFGGYDMGWYRQAPGKERELVSAIDADAGSTYYADSVKGRFTISRDNAKNTVYLQMYSLKPEDTSDDYCGAESYPYFITLYVFTLYGYWGQGTQVTVAS | low polyreactivity
7 | QVQLVESGGGLVQAGGSLRLSCAASGSTFITYAMGRYRQAPGKERELVAAIRWSGGGTYYADSVKGRFTISRDNAKNTVYLQMNSLKPEDTAVYYCAADHFNYTTGRDYWGQGTQVTVSS | low polyreactivity
8 | QVQLVESGGGLVQAGGSLRLSCASSGLTFWPYVKGWYRQAPGKERELVAAIEDTGITYYADSVKGRFTISRDNAKNTVYLQMNSLTPDDTAVYYCATDWDYYFPWIYPSDAGPEDGYWGQGTQVTVSS | low polyreactivity
9 | QVQHGESGGGLVQAGGRLRLICAASGSISVWYVMGWYRQAPGKERELVAAITRSGGSTFYADSVKGRFTISRDNAKNTVYLEMNSLKPEDTAVYYCAADFPSLYVWYGYGWYKYDYWGQGTQVTVSS | low polyreactivity
10 | QVQLVESGGGLVQAGGSLRLSCAASGSIFDYYAMGWYRQAPGKERELVASITWSGGRTSYADSVKGRFTISRDNAKNTVYLQMNSLKPEDSAVYYCAAKLWSYAYQHKRVWYYYWGQGTQVTVSS | high polyreactivity
11 | QVQLVESGGGLVQEGGSLRLSCAASGFIFGWYGMGWYRQPPGKDSELFAAITWSGVRTYYADSVKGRFTISRDNAKNTVYLQMISLKPEDTAVYYCARAGGYVGRGYKDQDGRGDYWGQGTQVTVSS | high polyreactivity
12 | QVQLVESGGGLVQAGGSLRLSCAASGIIFKNYAMGWYRQAPGKERELVAAISWRGGRTYYADSVKGRFTISRDNAKNTVYLQMNSLKPEDTAVYYCAKELYVSYRGGPWVDYWGQGTQVTVSS | high polyreactivity
13 | QVLLVESGGGLVQAGGSLRLSCAASGSIFGQYTMGWYRQAPGKERELVAAINSSGDSTFYADSVKGRFTISRDNAKNTVYLQMNSLKPEDTAVYYCAADPYRYYFRAYGWHREGYYWGQGTQVTVSS | low polyreactivity
14 | QVQLVESGGGLVQAGGSLRLSCAASGFIFNKYAMGWYRQAPGKERELVATIRRDGSTNYADSVKGRFTISRDNAKNTVYLQMNSLKPEDTAVYYCAVRPYYWSRDYYWGQGTQVTVSS | high polyreactivity
15 | QVQLVDSGGGLVQAGGSLRLSCAASGRIFYQNAMGWYRQAPGKETELVADNSSGGSTYYADSVKGRFTISRDNAKNTVYLQMNSLKPEDNAVYYCNTPSGPGTVGSYRRKWYGYWGQGTQLTVSS | low polyreactivity
16 | QVQLVESGGGLVQAGGSLRLSCAASGFTFTSNVMGWYREAPGKEWELVADISASDGRTYYADSVKGRFTISRDNAKNTVYLQMNSLKREDTAVYYCNVSSRRLRGLDYWGQGTQVTVSS | low polyreactivity
17 | QVQLVESGGGLVQAGGSLRLSCAASGRTFYYYAMGWYRQAPGKERELVAAISSNGGSTYADSVKGRYTISRDNAKNTVYLQMNSLKPEDTAVYYCNARFTYRWGMGYWGHGTQVTVSS | high polyreactivity
18 | QVQLVESGGGLVQAGGSLRLSCSASGLTFSYYAMGLYRQAPGTERELVAAITSSGGNTYYADSVKGRFTISRDNAKNTVYLQMNSLKPEDTAVYYCNAVVGLGYNYWGQGNQVTVSS | high polyreactivity
19 | QVQLVESGGGLVQAGGSLRLSCAASGRTSFHYAMGWYRQAPGKERELVAAINWNGGRTYYADSVKGRFTISRDNAKNTVYLQMNSLKPEDTAVYYCAARLSYLGGYDYWGQGTQVTVSS | high polyreactivity
20 | QVQLVESGGGLVQAGGSLRLRCAASGRIFYSNTMGWYRQAPGKERELVADITSGGSTKYADSVKGRFTISRDNAKNTVYLQMISLKPEDTAVYYCAAGERYDWWYGGFQGYDYWGQGTQVTVSS | high polyreactivity
21 | QVQLVESGGGLVQAGGSLRLSCAASGSTFGPYTMGWYRQAPGKERELVAAISYSGASTYYADSVKGRFTISRDNAMNTVYLQMNSLKPEDTAVYYCNTVYRYTRARYPYDYWGQGTQVTVSS | high polyreactivity
22 | QVQLVESGGGLVQAGGSLRFSCAASGSTFSYYDMGWYRQAPGKEREMVAAISWNGGTTFYADSVKGRFTISRDNAMNTVYLQMKSLKPEDTAVYYCAVTGFEVLWPSLGGELDYWGQGTQVTVSS | low polyreactivity

Row | Sequence | polyreactivity (PSR sort gate)
23 | QVQLVESGGGLVQAGGSLRLSCAASGGTFNHYAMGWYRQAPGKERELVASITNGASTYYADSVKGRFTISRDNAKNTVYLQMNSLKPEDTAVYYCAKRGRVGKYRYEYWGQGTQVTVSS | low polyreactivity
24 | QVQLVESGGGLVQAGGSLRLSCAASGRIFKSNAMGWYRQAPGKERELVASISRSGSTNYADSVKGRFTLSRDNAKNTVYLQMNSLKPEDTAVYYCAKDPDAKGGGYDYWGQGTQVTVSS | low polyreactivity
25 | QVQLVESGRGLVQAGGSLRLSCAASGFTFAFYAMGWYRQAPGKERELVAAISRRGGSTTYADSVKGRFTISRDNAKNTVYLQMNSLIPEDSAVYYCNAVSTRNPGPDYYYWGQGTQVTVSS | high polyreactivity
26 | QVQLVESGGGLVQAGGSLRLSCAASGSIFSGYTMGWYRQAPGQERELVAAISYRGGRTYYADSVKGRFTISRDNAKNTVYLQMNSLKPEDTAVYYCNAAPYITRRHDYWGQGTQVTVSS | high polyreactivity
27 | QVQLVESGGGLVQAGGSLRLSCAASGLIFYKNAMGSYRQAPGKEREFVAAISRSGASTYYSDSVMGRFTISRDYAKNTVYLQMKSLKPEVTEVYLCAARAGANYRMDYWGQGTQVTVSS | high polyreactivity
28 | QVQLVESGGGLVQAGGSLRLSCAASGSIFTGNAMGWYRPAPGTERELVAAITRSGDSTYYADSVKGRFTISRDNAKNTVYLQMNSLKPEDTAVDYCNARWRYLHSYGYWGQGTQVTVSS | low polyreactivity
29 | QVQLVESGGGLVQAGGSLRLSCAASGSTIKYYAMGWYRPAPGKERELVAAISKGATRTYYADSVKGRFTISRDHAKNTVYLQMNSLKPEDTAVYFCAADRLKFPCEYDYWGHGTQVTVSS | high polyreactivity
30 | QVQLVESGGGLVQAGGSLRLSCAASGSTFYVNAMGWYRQAPGKERELVAAITSGGSTKYADSVKGRYTISCDNAKNTVYLQMNSLKPEDTAVDDCAAPRGRALSKVRYDDEYWGQGTQVTVSS | high polyreactivity
31 | QVQLVESGGGLVQAGGSLRLSCAASGYTFVLNAMGWYRQAPGKEREFFAAITWSGGSTYYADSVKGRFTISRDNAKNTVYLQMNSLKPEDTAVYYCARSSRGKLDYWGQGTQVTVSS | low polyreactivity
32 | QVHLVESGGGLVQAGGSLRLTCAASGRIFSSYAMGWYRQAPGKVRELVPAITRGGSTYYADSVKGRFTISRDNAKYTVYLQMNSLKPEDTGVYYCAGRQPYRYWFWGNEDFWGQGSQVTVSS | high polyreactivity
33 | QVQLVESGGGLVQAGGSLRLSCASSGSTVSVNAMGWSRQAPGKESEFVASISKRGGSTYYADSVKGRFTISRDNAKNTVYLQMNSLKPEDTAVYYCARVLTGPGRLDYWGQGTQVTVSS | high polyreactivity
34 | QVQLVESGGGLVQAGGSLRLSCAASGNTFYRNAMGWSRQAPGKERELVAAIDYSAGSTYYADSVKGRFTISRDNAKNTVYLQMNSLKPEDTAVYYCAADARTSRGRRYYYWGQGTQVTVSS | low polyreactivity
35 | QVQLVESGGGLVQAGGSLRLSCAASGSTFPYYTMGWYRQAPGKEREMVAAITGSGGSTYYADSVKGRFTISRDNAKNTVYLQMNSLKPEDTAVYYCAKRRWDQYFKNRMYFWGQGTQVTVSS | high polyreactivity
36 | QVQLVDSGGGLVQAGGSLRLSCAASGRTFRYYAMGWYRQAPGKERELVATITGSGGSTYYADSVKGRFTISRDNAKNTVYLQLISLKPEDTAVYYCNARKVRYPYRWYDYWGQGTQVTVSS | high polyreactivity
37 | QVQLVESGGGLVQAGGSLRISSAASGRTFVNYTMGWYRQAPGKERELVAAITSSGGSTYYADSVKGRFTISRDNAKNTVYLQMNSLKPEDTAVYYCASAIFDLSFWLYYWGQGTQVTVSS | low polyreactivity
38 | QVQLVESGGGLVQAGGSLRLSCAASGRTSGAYAMGWYRQAPGKERELVAAISIAGITYADSVKGRFTISRDNAKNTVYLQMNSLKPEDTAVYYCAAYYLFRPYAQYDYWGQGTQVTVSS | low polyreactivity
39 | QVQLVESGGGLVQAGGSLRLSCAASGSTSYPYAMGWYIQAPGQERELVATINYSGARTYYADSVKGRFTISRDNAKNTVYFQMNSLKPEDTAVYYCAATVYWRLEHDYWGQGTQVTVSS | low polyreactivity
40 | QVQLVESGGGLVQAGGSLRLSCAASGFTFDGYGMGWYRQAPGKERELVAVITSGGSTKYADSVKGRFTISRDNAKNTVYLQMNSLKPEDTAVYYCAADNRIRGVAFDYWGQGTKVTVSS | low polyreactivity
41 | QVQLVESGGGLVQAGGILRLSCAASGLIFYYYAMGWYRQAPGKERELVAAIRTNYADSVKGRFTISRDNAKNTVYLQMNSLKPEDTAVYYCAAESSHSPTSAFDYWGQGTQVTVSS | low polyreactivity
42 | QVQLVESGGGLVQAGGSLRLSCAASGRTFWRYAMGWYRQAPGKEREVVAAISRRGDSTYYADSVKGRFTISRDYAKNTVYLQMNSLKPEDTAVYYCNKGYAYSHDDPYWYSPRYDYWGQGTQVTVSS | low polyreactivity
43 | QVQLVESGGGLVQAGGSLRLISAASGSIFERYAMGWYRQAPGKERELVAAITWTGGSTYYADSVKGRFTISRDNAKNTVYLQMNSLKPEDTAVYYCAADYLYPLWGWYDYWGQGTQVTVSS | low polyreactivity
